Experiments:
[1] = target: TLR-5 receptor on THP-1 cells (UniProt O60602); assay: cell-based or functional assay
[2] = target: TLR-5 receptor on THP-1 cells (UniProt O60602 21-858); assay: cell-based or functional assay
Sequence of TLR-5 receptor on THP-1 cells (UniProt O60602 21-858) (O60602 21-858 limits assumed): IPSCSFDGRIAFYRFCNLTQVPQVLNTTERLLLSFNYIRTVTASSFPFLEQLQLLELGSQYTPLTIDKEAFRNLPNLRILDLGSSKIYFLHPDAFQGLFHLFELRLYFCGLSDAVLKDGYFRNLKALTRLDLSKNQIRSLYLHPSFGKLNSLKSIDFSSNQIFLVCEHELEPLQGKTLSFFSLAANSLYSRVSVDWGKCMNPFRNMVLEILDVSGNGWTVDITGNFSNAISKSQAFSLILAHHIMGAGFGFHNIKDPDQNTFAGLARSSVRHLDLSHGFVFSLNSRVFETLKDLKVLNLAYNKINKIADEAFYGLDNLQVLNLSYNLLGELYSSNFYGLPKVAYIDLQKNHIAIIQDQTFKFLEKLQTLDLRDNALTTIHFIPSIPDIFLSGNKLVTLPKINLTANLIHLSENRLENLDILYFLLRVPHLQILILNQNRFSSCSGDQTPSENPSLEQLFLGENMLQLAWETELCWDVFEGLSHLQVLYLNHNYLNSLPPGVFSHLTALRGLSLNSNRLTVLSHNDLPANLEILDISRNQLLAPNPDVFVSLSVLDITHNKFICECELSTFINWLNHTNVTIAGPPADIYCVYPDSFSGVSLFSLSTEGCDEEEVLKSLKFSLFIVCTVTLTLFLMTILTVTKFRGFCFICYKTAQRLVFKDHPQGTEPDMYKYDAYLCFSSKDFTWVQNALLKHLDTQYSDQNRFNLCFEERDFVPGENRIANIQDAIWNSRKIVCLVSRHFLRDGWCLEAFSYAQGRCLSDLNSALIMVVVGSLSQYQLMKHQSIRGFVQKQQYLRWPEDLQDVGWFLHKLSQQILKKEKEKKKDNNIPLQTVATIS

Sequence of TLR-5 receptor on THP-1 cells (UniProt O60602) (O60602 21-858 limits assumed): as above

endotoxin-free flagellin protein (Alpha Diagnostic) (ligand)
IL-8 content in THP-1 supernatant, stimulation at 2.5 ug/mL [1]: 19.6 ng | In vitro relative potency (%), IL-8 [1]: 100% | In vitro relative potency (%), TNF-α [1]: 100% | TNF-α content in THP-1 supernatant, stimulation at 2.5 ug/mL [1]: 969 pg

B1: ANF fusion protein (N-terminal D0-D1-C terminal D1-D0-gE, LT2) (other)
chain: AQVINTNSLSLLTQNNLNKSQSALGTAIERLSSGLRINSAKDDAAGQAIANRFTANIKGLTQASRNANDGISIAQTTEGALNEINNNLQRVRELAVQSANSTNSQSDLDSIQAEITQRLNEIDRVSGQTQFNGVKVLAQDNTLTIQVGANDGETIDIDLKQINSQTLGLDTLNVQSPGISGGGGGILDSMGKAQPDLAEAAATTTENPLQKIDAALAQVDTLRSDLGAVQNRFNSAITNLGNTVNNLTSARSRIEDSDYATEVSNMSRAQILQQAGTSVLAQANQVPQNVLSLLRGGGGSGGGGSGGGGSSVLRYDDFHIDEDKLDTNSVYEPYYHSDHAESSWVNRGESSRKAYDHNSPYIWPRNDYDGFLENAHEHHGVYNQGRGIDSGERLMQPTQMSAQEDLGDDTGIHVIPTLNGDDRHKIVNVDQRQYGDVFKGDLNPKPQGQRLIEVSVEENHPFTLRAPIQRIYGVRYTETWSFLPSLTCTGDAAPAIQHICLKHTTCFQDVVVDVDCAENTKEDQLAEISYRFQGKKEADQPWIVVNTSTLFDELELDPPEIEPGVLKVLRTEKQYLGVYIWNMRGSDGTSTYATFLVTWKGDEKTRNPTPAVTPQPRGAEFHMWNYHSHVFSVGDTFSLAMHLQYKIHEAPFDLLLEWLYVPIDPTCQPMRLYSTCLYHPNAPQCLSHMNSGCTFTSPHLAQRVASTVYQNCEHADNYTAYCLGISHMEPSFGLILHDGGTTLKFVDTPESLSGLYVFVVYFNGHVEAVAYTVVSTVDHFVNAIEERGFPPTAGQPPATTKPKEITPVNPGTSPLIR
IL-8 content in THP-1 supernatant, stimulation at 5 ug/mL [2]: 10.8 ng | In vitro relative potency (%), IL-8 [2]: 55.3% | In vitro relative potency (%), TNF-α [2]: 57% | TNF-α content in THP-1 supernatant, stimulation at 5 ug/mL [2]: 552 pg

B2: ACF fusion protein (gE-N-terminal D0-D1-C-terminal D1-D0, LT2) (other)
chain: SVLRYDDFHIDEDKLDTNSVYEPYYHSDHAESSWVNRGESSRKAYDHNSPYIWPRNDYDGFLENAHEHHGVYNQGRGIDSGERLMQPTQMSAQEDLGDDTGIHVIPTLNGDDRHKIVNVDQRQYGDVFKGDLNPKPQGQRLIEVSVEENHPFTLRAPIQRIYGVRYTETWSFLPSLTCTGDAAPAIQHICLKHTTCFQDVVVDVDCAENTKEDQLAEISYRFQGKKEADQPWIVVNTSTLFDELELDPPEIEPGVLKVLRTEKQYLGVYIWNMRGSDGTSTYATFLVTWKGDEKTRNPTPAVTPQPRGAEFHMWNYHSHVFSVGDTFSLAMHLQYKIHEAPFDLLLEWLYVPIDPTCQPMRLYSTCLYHPNAPQCLSHMNSGCTFTSPHLAQRVASTVYQNCEHADNYTAYCLGISHMEPSFGLILHDGGTTLKFVDTPESLSGLYVFVVYFNGHVEAVAYTVVSTVDHFVNAIEERGFPPTAGQPPATTKPKEITPVNPGTSPLIRGGGGSGGGGSGGGGSAQVINTNSLSLLTQNNLNKSQSALGTAIERLSSGLRINSAKDDAAGQAIANRFTANIKGLTQASRNANDGISIAQTTEGALNEINNNLQRVRELAVQSANSTNSQSDLDSIQAEITQRLNEIDRVSGQTQFNGVKVLAQDNTLTIQVGANDGETIDIDLKQINSQTLGLDTLNVQSPGISGGGGGILDSMGKAQPDLAEAAATTTENPLQKIDAALAQVDTLRSDLGAVQNRFNSAITNLGNTVNNLTSARSRIEDSDYATEVSNMSRAQILQQAGTSVLAQANQVPQNVLSLLR
IL-8 content in THP-1 supernatant, stimulation at 5 ug/mL [2]: 6.41 ng | In vitro relative potency (%), IL-8 [2]: 32.7% | In vitro relative potency (%), TNF-α [2]: 11.6% | TNF-α content in THP-1 supernatant, stimulation at 5 ug/mL [2]: 112 pg

B3: recombinant VZV gE protein (gE extracellular region), expressed in eukaryotic cells from recombinant adenovirus (other)
chain: SVLRYDDFHIDEDKLDTNSVYEPYYHSDHAESSWVNRGESSRKAYDHNSPYIWPRNDYDGFLENAHEHHGVYNQGRGIDSGERLMQPTQMSAQEDLGDDTGIHVIPTLNGDDRHKIVNVDQRQYGDVFKGDLNPKPQGQRLIEVSVEENHPFTLRAPIQRIYGVRYTETWSFLPSLTCTGDAAPAIQHICLKHTTCFQDVVVDVDCAENTKEDQLAEISYRFQGKKEADQPWIVVNTSTLFDELELDPPEIEPGVLKVLRTEKQYLGVYIWNMRGSDGTSTYATFLVTWKGDEKTRNPTPAVTPQPRGAEFHMWNYHSHVFSVGDTFSLAMHLQYKIHEAPFDLLLEWLYVPIDPTCQPMRLYSTCLYHPNAPQCLSHMNSGCTFTSPHLAQRVASTVYQNCEHADNYTAYCLGISHMEPSFGLILHDGGTTLKFVDTPESLSGLYVFVVYFNGHVEAVAYTVVSTVDHFVNAIEERGFPPTAGQPPATTKPKEITPVNPGTSPLIR
IL-8 content in THP-1 supernatant, stimulation at 5 ug/mL [2]: 0 ng | In vitro relative potency (%), IL-8 [2]: 0% | In vitro relative potency (%), TNF-α [2]: 0% | TNF-α content in THP-1 supernatant, stimulation at 5 ug/mL [2]: 0 pg

B4: ASF fusion protein (N-terminal D0-D1-gE-C-terminal D1-D0, LT2) (other)
chain: AQVINTNSLSLLTQNNLNKSQSALGTAIERLSSGLRINSAKDDAAGQAIANRFTANIKGLTQASRNANDGISIAQTTEGALNEINNNLQRVRELAVQSANSTNSQSDLDSIQAEITQRLNEIDRVSGQTQFNGVKVLAQDNTLTIQVGANDGETIDIDLKQINSQTLGLDTLNVQGGGGSGGGGSGGGGSSVLRYDDFHIDEDKLDTNSVYEPYYHSDHAESSWVNRGESSRKAYDHNSPYIWPRNDYDGFLENAHEHHGVYNQGRGIDSGERLMQPTQMSAQEDLGDDTGIHVIPTLNGDDRHKIVNVDQRQYGDVFKGDLNPKPQGQRLIEVSVEENHPFTLRAPIQRIYGVRYTETWSFLPSLTCTGDAAPAIQHICLKHTTCFQDVVVDVDCAENTKEDQLAEISYRFQGKKEADQPWIVVNTSTLFDELELDPPEIEPGVLKVLRTEKQYLGVYIWNMRGSDGTSTYATFLVTWKGDEKTRNPTPAVTPQPRGAEFHMWNYHSHVFSVGDTFSLAMHLQYKIHEAPFDLLLEWLYVPIDPTCQPMRLYSTCLYHPNAPQCLSHMNSGCTFTSPHLAQRVASTVYQNCEHADNYTAYCLGISHMEPSFGLILHDGGTTLKFVDTPESLSGLYVFVVYFNGHVEAVAYTVVSTVDHFVNAIEERGFPPTAGQPPATTKPKEITPVNPGTSPLIRGGGGSGGGGSGGGGSKAQPDLAEAAATTTENPLQKIDAALAQVDTLRSDLGAVQNRFNSAITNLGNTVNNLTSARSRIEDSDYATEVSNMSRAQILQQAGTSVLAQANQVPQNVLSLLR
IL-8 content in THP-1 supernatant, stimulation at 5 ug/mL [2]: 27.8 ng | In vitro relative potency (%), IL-8 [2]: 142% | In vitro relative potency (%), TNF-α [2]: 104% | TNF-α content in THP-1 supernatant, stimulation at 5 ug/mL [2]: 1000 pg
